Experimental data from US20200190189A1.

B1: ADI-26954 Fab (Fab, from a related filing, V domains shown)
VH: QVQLVQSGAEVKKPGASVKVSCKASGFNIKDYYMHWVRQAPGQRLEWMGWIDLENANTIYDAKFQGRVTITRDTSASTAYMELSSLRSEDTAVYYCARDNYGGYFYDVWGQGTLVTVSS
VL: DIVMTQSPDSLAVSLGERATINCKSSQSLLESRTGKNYLAWYQQKPGQPPKLLIYWASTRESGVPDRFSGSGSGTDFTLTISSLQAEDVAVYYCKQSYSLRTFGGGTKVEIK
B2: ADI-26928 Fab (Fab, from a related filing, V domains shown)
VH: QVQLVQSGAEVKKPGASVKVSCKASGFNIKDYYMHWVRQAPGQRLEWMGWIDLEEGNTIYDAKFQGRVTITRDTSASTAYMELSSLRSEDTAVYYCGRDAYGLYFYDVWGQGTLVTVSS
VL: DIVMTQSPDSLAVSLGERATINCKSSQSLLNARTGKNYLAWYQQKPGQPPKLLIYWASTRESGVPDRFSGSGSGTDFTLTISSLQAEDVAVYYCKQSYSLRTFGGGTKVEIK
B3: ADI-26941 Fab (Fab, from a related filing, V domains shown)
VH: QVQLVQSGAEVKKPGASVKVSCKASGFNIKDYYMHWVRQAPGQRLEWMGWIDLEEGNTIYDAKFQGRVTITRDTSASTAYMELSSLRSEDTAVYYCARDQYGRYFYDVWGQGTLVTVSS
VL: DIVMTQSPDSLAVSLGERATINCKSSQSLLNARTGKNYLAWYQQKPGQPPKLLIYWASTRESGVPDRFSGSGSGTDFTLTISSLQAEDVAVYYCKQSYSIRTFGGGTKVEIK

What was measured:
[1] = biological target: Human CD3 on T cells in donor PBMC (human) (UniProt P07766); test: cell-based or functional assay
Chain of Human CD3 on T cells in donor PBMC (human) (P07766 23-207): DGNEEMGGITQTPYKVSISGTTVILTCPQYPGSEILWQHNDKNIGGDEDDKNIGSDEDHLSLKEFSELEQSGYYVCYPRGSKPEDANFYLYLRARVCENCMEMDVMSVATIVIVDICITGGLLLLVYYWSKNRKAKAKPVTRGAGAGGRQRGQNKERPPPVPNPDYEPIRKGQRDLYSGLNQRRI

[2] = biological target: Cynomolgus CD3εδ heterodimeric Fc fusion (cynomolgus); test: ForteBio BLI, Fab KD, monovalent
[3] = biological target: Human CD3εδ heterodimeric Fc fusion (human); test: ForteBio BLI, Fab KD, monovalent

| D5801 10 nM Fab IFNg [1] | Fab IFNg, donor A4560 PBMC, 0.3 nM [1] | Fab IFNg, donor A4560 PBMC, 10 nM [1] | Fab IFNg, donor D5801 PBMC, 0.3 nM [1] | Fab IFNg, donor D5801 PBMC, 10 nM [1] | Kd [2] | Kd [3] | Binder |
| --- | --- | --- | --- | --- | --- | --- | --- |
| 0 pg/mL | 0 pg/mL | 0 pg/mL | 0 pg/mL | – | – | – | B1 |
| – | – | – | – | 0 pg/mL | – | – | B2 |
| 0 pg/mL | – | – | – | – | 220 nM | 1100 nM | B3 |
